Measurements: patent US20140179604A1 (U S A REPRESENTED BY THE DEPARTMENT OF VETERANS AFFAIRS, published 2014)
Non-standard residues stand in square brackets, D forms with d. No end group written: not given here. *: point of attachment. Desaminotyrosyl = O=C(CCc1ccc(O)cc1)*; NMeY = CN[C@@H](Cc1ccc(O)cc1)C(=O)O; hArg = N=C(N)NCCCC[C@H](N)C(=O)O; Nle = CCCC[C@H](N)C(=O)O; Orn = NCCC[C@H](N)C(=O)O; Abu = CC[C@H](N)C(=O)O; Aoc = NCCCCCCCC(=O)O; Ava = NCCCCC(=O)O

T1: GHRH receptor (membrane receptors of human anterior pituitary cells) (human) (UniProt Q02643)
T1 sequence (looked up): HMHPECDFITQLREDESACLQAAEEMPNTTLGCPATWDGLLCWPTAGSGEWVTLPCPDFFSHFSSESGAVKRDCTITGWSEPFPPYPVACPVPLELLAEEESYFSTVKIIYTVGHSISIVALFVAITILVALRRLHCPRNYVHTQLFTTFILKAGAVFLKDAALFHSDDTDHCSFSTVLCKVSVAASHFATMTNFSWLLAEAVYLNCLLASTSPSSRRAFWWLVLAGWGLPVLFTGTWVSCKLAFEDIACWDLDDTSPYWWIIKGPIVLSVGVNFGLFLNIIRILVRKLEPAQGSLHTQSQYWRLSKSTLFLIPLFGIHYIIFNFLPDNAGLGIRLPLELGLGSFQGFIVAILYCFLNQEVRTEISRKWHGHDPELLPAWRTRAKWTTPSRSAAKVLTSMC

T2: GHRH receptor (membrane receptors of human anterior pituitary cells) (human, UniProt Q02643 23-423)
T2 construct: whole, on cells; Native receptor in a membrane fraction of purchased normal human pituitaries, not intact cells; also called hGHRH receptor; human pituitary membrane homogenates
T2 sequence (looked up): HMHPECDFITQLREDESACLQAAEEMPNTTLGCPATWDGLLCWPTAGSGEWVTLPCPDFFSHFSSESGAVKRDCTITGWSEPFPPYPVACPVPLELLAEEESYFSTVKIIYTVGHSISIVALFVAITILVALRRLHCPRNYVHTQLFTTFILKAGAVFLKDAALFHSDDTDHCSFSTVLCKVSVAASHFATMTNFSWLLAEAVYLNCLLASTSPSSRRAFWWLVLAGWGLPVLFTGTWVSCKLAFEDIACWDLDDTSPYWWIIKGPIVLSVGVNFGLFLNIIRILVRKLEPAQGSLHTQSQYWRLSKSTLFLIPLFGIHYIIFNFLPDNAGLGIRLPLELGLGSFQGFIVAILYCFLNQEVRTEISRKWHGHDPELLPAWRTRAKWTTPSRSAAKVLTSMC


How the values were obtained:
[1] = target: T1, GHRH receptor (membrane receptors of human anterior pituitary cells) (human); experiment: competition with 125I-JV-1-42, human pituitary membranes
[2] = target: T1, GHRH receptor (membrane receptors of human anterior pituitary cells) (human); experiment: competition with 125I-[His1,Nle27]hGHRH(1-32)NH2, human pituitary membranes
[3] = target: T2, GHRH receptor (membrane receptors of …); experiment: competition with [His1,125I-Tyr10,Nle27]hGHRH(1-32)NH2, human pituitary membranes
Source text: Normal human pituitaries were purchased from the National Hormone and Peptide Program (A. F. Parlow, Los Angeles, County Harbor—UCLA Medical Center, Torrance, Calif.).

Molecule	IC50 [1]	Relative affinity (Binding potency) vs JI-38 [1]	IC50 [2]	Relative affinity (Binding potency) compared to JI-38 [2]	Relative affinity (Binding potency) compared to hGHRH(1-29) (hGHRH(1-29)NH2 = 1) [2]	IC50 [3]	Relative affinity (Binding potency) vs GHRH [3]	Relative affinity (Binding potency) vs JI-38 [3]
[Desaminotyrosyl]ADAIFTQSYH[Orn]VL[Abu]QLSAH[Orn]LLQDI[Nle]DR-NHMe (peptide, from a related filing, SMILES CCCC[C@H](NC(=O)[C@@H](NC(=O)[C@H](CC(=O)O)NC(=O)[C@H](CCC(N)=O)NC(=O)[C@H](CC(C)C)NC(=O)[C@H](CC(C)C)NC(=O)[C@H](CCCN)NC(=O)[C@H](Cc1c[nH]cn1)NC(=O)[C@H](C)NC(=O)[C@H](CO)NC(=O)[C@H](CC(C)C)NC(=O)[C@H](CCC(N)=O)NC(=O)[C@H](CC)NC(=O)[C@H](CC(C)C)NC(=O)[C@@H](NC(=O)[C@H](CCCN)NC(=O)[C@H](Cc1c[nH]cn1)NC(=O)[C@H](Cc1ccc(O)cc1)NC(=O)[C@H](CO)NC(=O)[C@H](CCC(N)=O)NC(=O)[C@@H](NC(=O)[C@H](Cc1ccccc1)NC(=O)[C@@H](NC(=O)[C@H](C)NC(=O)[C@H](CC(=O)O)NC(=O)[C@H](C)NC(=O)CCc1ccc(O)cc1)[C@@H](C)CC)[C@@H](C)O)C(C)C)[C@@H](C)CC)C(=O)N[C@@H](CC(=O)O)C(=O)N[C@@H](CCCNC(=N)N)C(=O)NC) [P-27413 [Dat^1, Gln^8, His^11, Orn^12, Abu^15, His^20, Orn^21, Nle^27, Asp^28]hGHRH(1-29)NH-CH3]	2.45 nM	1.78 JI-38 = 1						
[Desaminotyrosyl][dA]DAIFTNSYR[Orn]VL[Abu]QLSAR[Orn]LLQDI[Nle]DR[hArg]-NH2 (SMILES CCCC[C@H](NC(=O)[C@@H](NC(=O)[C@H](CC(=O)O)NC(=O)[C@H](CCC(N)=O)NC(=O)[C@H](CC(C)C)NC(=O)[C@H](CC(C)C)NC(=O)[C@H](CCCN)NC(=O)[C@H](CCCNC(=N)N)NC(=O)[C@H](C)NC(=O)[C@H](CO)NC(=O)[C@H](CC(C)C)NC(=O)[C@H](CCC(N)=O)NC(=O)[C@H](CC)NC(=O)[C@H](CC(C)C)NC(=O)[C@@H](NC(=O)[C@H](CCCN)NC(=O)[C@H](CCCNC(=N)N)NC(=O)[C@H](Cc1ccc(O)cc1)NC(=O)[C@H](CO)NC(=O)[C@H](CC(N)=O)NC(=O)[C@@H](NC(=O)[C@H](Cc1ccccc1)NC(=O)[C@@H](NC(=O)[C@H](C)NC(=O)[C@H](CC(=O)O)NC(=O)[C@@H](C)NC(=O)CCc1ccc(O)cc1)[C@@H](C)CC)[C@@H](C)O)C(C)C)[C@@H](C)CC)C(=O)N[C@@H](CC(=O)O)C(=O)N[C@@H](CCCNC(=N)N)C(=O)N[C@@H](CCCCNC(=N)N)C(N)=O, also called Peptide 23252) [P-23252 [Dat^1-D-Ala^2, Orn^12, Abu^15, Orn^21, Nle^27, Asp^28, Har^30]hGHRH(1-30)NH2]						0.14 nM	42.3 GHRH(1-29) = 1	13.9 JI-38 = 1
[Desaminotyrosyl][dA]DAIFTTSYR[Orn]VL[Abu]QLSAR[Orn]LLQDI[Nle]DR[hArg]-NH2 (SMILES CCCC[C@H](NC(=O)[C@@H](NC(=O)[C@H](CC(=O)O)NC(=O)[C@H](CCC(N)=O)NC(=O)[C@H](CC(C)C)NC(=O)[C@H](CC(C)C)NC(=O)[C@H](CCCN)NC(=O)[C@H](CCCNC(=N)N)NC(=O)[C@H](C)NC(=O)[C@H](CO)NC(=O)[C@H](CC(C)C)NC(=O)[C@H](CCC(N)=O)NC(=O)[C@H](CC)NC(=O)[C@H](CC(C)C)NC(=O)[C@@H](NC(=O)[C@H](CCCN)NC(=O)[C@H](CCCNC(=N)N)NC(=O)[C@H](Cc1ccc(O)cc1)NC(=O)[C@H](CO)NC(=O)[C@@H](NC(=O)[C@@H](NC(=O)[C@H](Cc1ccccc1)NC(=O)[C@@H](NC(=O)[C@H](C)NC(=O)[C@H](CC(=O)O)NC(=O)[C@@H](C)NC(=O)CCc1ccc(O)cc1)[C@@H](C)CC)[C@@H](C)O)[C@@H](C)O)C(C)C)[C@@H](C)CC)C(=O)N[C@@H](CC(=O)O)C(=O)N[C@@H](CCCNC(=N)N)C(=O)N[C@@H](CCCCNC(=N)N)C(N)=O, also called Peptide 23254) [P-23254 [Dat^1, D-Ala^2, Thr^8, Orn^12, Abu^15, Orn^21, Nle^27, Asp^28, Har^30]hGHRH(1-30)NH2]						0.07 nM	84.5 GHRH(1-29) = 1	27.8 JI-38 = 1
[Desaminotyrosyl][dA]DAIFTQSYR[Orn]VL[Abu]QLSAR[Orn]LLQDI[Nle]DR[Aoc]-NH2 (SMILES CCCC[C@H](NC(=O)[C@@H](NC(=O)[C@H](CC(=O)O)NC(=O)[C@H](CCC(N)=O)NC(=O)[C@H](CC(C)C)NC(=O)[C@H](CC(C)C)NC(=O)[C@H](CCCN)NC(=O)[C@H](CCCNC(=N)N)NC(=O)[C@H](C)NC(=O)[C@H](CO)NC(=O)[C@H](CC(C)C)NC(=O)[C@H](CCC(N)=O)NC(=O)[C@H](CC)NC(=O)[C@H](CC(C)C)NC(=O)[C@@H](NC(=O)[C@H](CCCN)NC(=O)[C@H](CCCNC(=N)N)NC(=O)[C@H](Cc1ccc(O)cc1)NC(=O)[C@H](CO)NC(=O)[C@H](CCC(N)=O)NC(=O)[C@@H](NC(=O)[C@H](Cc1ccccc1)NC(=O)[C@@H](NC(=O)[C@H](C)NC(=O)[C@H](CC(=O)O)NC(=O)[C@@H](C)NC(=O)CCc1ccc(O)cc1)[C@@H](C)CC)[C@@H](C)O)C(C)C)[C@@H](C)CC)C(=O)N[C@@H](CC(=O)O)C(=O)N[C@@H](CCCNC(=N)N)C(=O)NCCCCCCCC(N)=O, also called Peptide 21304) [P-21304 [Dat^1, D-Ala^2, Gln^8, Orn^12, Abu^15, Orn^21, Nle^27, Asp^28, Amc^30]hGHRH(1-30)NH2]						0.08 nM	74 GHRH(1-29) = 1	24.4 JI-38 = 1

Results, then the molecule that gave them:

IC50 [1]	Relative affinity (Binding potency) vs JI-38 [1]	IC50 [2]	Relative affinity (Binding potency) compared to JI-38 [2]	Relative affinity (Binding potency) compared to hGHRH(1-29) (hGHRH(1-29)NH2 = 1) [2]	IC50 [3]	Relative affinity (Binding potency) vs GHRH [3]	Relative affinity (Binding potency) vs JI-38 [3]	Molecule
0.87 nM	5 JI-38 = 1	1.12 nM	2.45 JI-38 = 1	6.83				P-27404 [N-Me-Tyr^1, D-Ala^2, Fpa5^6, Orn^12, Abu^15, Orn^21, Nle^27, Asp^28]hGHRH(1-29)NH-CH3 (peptide)
0.3 nM	14.5 JI-38 = 1	0.93 nM	2.95 JI-38 = 1	8.22				[NMeY]ADAIFTQSYR[Orn]VL[Abu]QLSAR[Orn]LLQDI[Nle]DR-NHMe (peptide, from a related filing) [P-27406 [N-Me-Tyr^1, Gln^8, Orn^12, Abu^15, Orn^21, Nle^27, Asp^28]hGHRH(1-29)NH-CH3]
1.08 nM	4.03 JI-38 = 1	2.51 nM	1.09 JI-38 = 1	3.04				[NMeY]ADAIFTQSYR[Orn]VL[Abu]QLSAR[Orn]LLQDI[Nle]SR-NHMe (peptide, from a related filing) [P-27405 [N-Me-Tyr^1, Gln^8, Orn^12, Abu^15, Orn^21, Nle^27]hGHRH(1-29)NH-CH3]
3 nM	1.45 JI-38 = 1	5.01 nM	0.54 JI-38 = 1	1.52				[Desaminotyrosyl]ADAIFTQSYR[Orn]VL[Abu]QLSAR[Orn]LLQDI[Nle]DR-NHMe (peptide, from a related filing, SMILES CCCC[C@H](NC(=O)[C@@H](NC(=O)[C@H](CC(=O)O)NC(=O)[C@H](CCC(N)=O)NC(=O)[C@H](CC(C)C)NC(=O)[C@H](CC(C)C)NC(=O)[C@H](CCCN)NC(=O)[C@H](CCCNC(=N)N)NC(=O)[C@H](C)NC(=O)[C@H](CO)NC(=O)[C@H](CC(C)C)NC(=O)[C@H](CCC(N)=O)NC(=O)[C@H](CC)NC(=O)[C@H](CC(C)C)NC(=O)[C@@H](NC(=O)[C@H](CCCN)NC(=O)[C@H](CCCNC(=N)N)NC(=O)[C@H](Cc1ccc(O)cc1)NC(=O)[C@H](CO)NC(=O)[C@H](CCC(N)=O)NC(=O)[C@@H](NC(=O)[C@H](Cc1ccccc1)NC(=O)[C@@H](NC(=O)[C@H](C)NC(=O)[C@H](CC(=O)O)NC(=O)[C@H](C)NC(=O)CCc1ccc(O)cc1)[C@@H](C)CC)[C@@H](C)O)C(C)C)[C@@H](C)CC)C(=O)N[C@@H](CC(=O)O)C(=O)N[C@@H](CCCNC(=N)N)C(=O)NC) [P-27407 [Dat^1, Gln^8, Orn^12, Abu^15, Orn^21, Nle^27, Asp^28]hGHRH(1-29)NH-CH3]
1.99 nM	2.18 JI-38 = 1	2.04 nM	1.34 JI-38 = 1	3.75				[Desaminotyrosyl]ADAIFTQSYR[Orn]VL[Abu]QLSAR[Orn]LLQDI[Nle]DR[Ava]-NH2 (peptide, from a related filing, SMILES CCCC[C@H](NC(=O)[C@@H](NC(=O)[C@H](CC(=O)O)NC(=O)[C@H](CCC(N)=O)NC(=O)[C@H](CC(C)C)NC(=O)[C@H](CC(C)C)NC(=O)[C@H](CCCN)NC(=O)[C@H](CCCNC(=N)N)NC(=O)[C@H](C)NC(=O)[C@H](CO)NC(=O)[C@H](CC(C)C)NC(=O)[C@H](CCC(N)=O)NC(=O)[C@H](CC)NC(=O)[C@H](CC(C)C)NC(=O)[C@@H](NC(=O)[C@H](CCCN)NC(=O)[C@H](CCCNC(=N)N)NC(=O)[C@H](Cc1ccc(O)cc1)NC(=O)[C@H](CO)NC(=O)[C@H](CCC(N)=O)NC(=O)[C@@H](NC(=O)[C@H](Cc1ccccc1)NC(=O)[C@@H](NC(=O)[C@H](C)NC(=O)[C@H](CC(=O)O)NC(=O)[C@H](C)NC(=O)CCc1ccc(O)cc1)[C@@H](C)CC)[C@@H](C)O)C(C)C)[C@@H](C)CC)C(=O)N[C@@H](CC(=O)O)C(=O)N[C@@H](CCCNC(=N)N)C(=O)NCCCCC(N)=O) [P-22327 [Dat^1, Gln^8, Orn^12, Abu^15, Orn^21, Nle^27, Asp^28, Apa^30]hGHRH(1-30)NH2]
